Experimental findings from patent US6713269B2, “Methods for identifying potential therapeutic agents for treatment of osteoporosis using mitogenic indices” (co.don Aktiengesellschaft, priority 1995, dated 2004) are described below.

The test concerns human osteoblast precursor cells. Put plainly: Cell proliferation rate under the influence of growth factors, using bromodeoxyuridine incorporation (BrdU incorporation). The conditions noted are these: for Absorbance mean value: 54 h incubation + 18 h BrdU labelling, OD at 405 nm. Type of test: cell-based. As to the method: 3,000 osteoblastic cells from fractions t1 to 2 up to the second passage, recovered from osteoporotic patients (OP cells), per well of a 96-well microwell plate were incubated in the presence of 10% FCS and 10% inactivated human control serum in a cell culture medium (α-MEM and HAM-S F12 medium […]) for 48 h, 120 h and 192 h. In parallel, 3,000 osteoblastic cells from non-osteoporotic patients were incubated under the same conditions. The number of intact cells was determined by means of trypan blue staining and counting in a counting chamber. 4. Determination of the cell proliferation rate under the influence of the three growth factors 1, 2 and 3 using bromodeoxyuridine incorporation (BrdU incorporation) Growth factor 1 =TGF-β2
Cells from fraction 1 and/or 2 of each punched-out bone piece up to the 2nd passage were used in the proliferation test.
3 ×10^3 cells from the first and/or second passage per well of a 96-well plate and 200 μl of medium were used.
The cells were cultivated for three days under the conditions previously described and subsequently cultivated further for one day in medium with no serum until subconfluence was reached.
Thereafter, the three growth factors 1, 2 and 3 were added to the cells at four different final concentrations (100, 10, 1, and 0.1 ng/ml medium).
Cells in a medium containing 10% FKS and in a medium containing 5% Ultroser served as controls.
Triplets were set up for all concentrations and controls.
Six wells including cells, to which no bromodeoxyuridine had been added during the proliferation test served as blank controls.
After 54 hours of incubation with the growth factors, the proliferation test (5-Bromo-2′-deoxyuridine Labeling and Detection Kit III by Boehringer Mannheim) was initiated by adding 20 μl of labelling solution diluted 1:90 in 1% BSA medium and subsequent incubation for 18 hours.
The proliferation test was conducted according to the manufacturer's instructions.
Evaluation of the proliferation test was effected by measuring the optical density (OD) at 405 nm in an ELISA reader. After 60 minutes of color development, the absorbance was measured 12 times at intervals of 5 minutes.

B1: TGF-β2: protein growth factor 1 tested for mitogenic effect on osteoblast cells (protein, UniProt P61812 303-414, looked up)
Transforming growth factor …: ALDAAYCFRNVQDNCCLRPLYIDFKRDLGWKWIHEPKGYNANFCAGACPYLWSSDTQHSRVLSLYNTINPEASASPCCVSQDLEPLTILYYIGKTPKIEQLSNMIVKSCKCS
In the case of B1, the Absorbance mean value came to 0.150 (0.1 ng/ml medium), 0.170 (1 ng/ml medium), 0.190 (10 ng/ml medium) and 0.190 (100 ng/ml medium). Further, for the setting “osteoblast cells from osteoporosis patients, FIG. 5”, the “mitogenic effect (stimulative capability of cell proliferation, dose-effect curves)” value is on record as “significant dose-dependent mitogenic effect”.
